Data set [1] can be described thus: oligomer EMSA, 293T, loading adapted to STAT5 activity. As to conditions: glycan lost; control: constructs without T92A.
Data set [2] in a line: total STAT5 immunoblot, Ba/F3. As to conditions: glycan lost; control: cS5. A general note: In western blotting, separated proteins are transferred to a membrane and probed.
A short description of data set [3]: phospho-serine immunoblot, Ba/F3. As to conditions: glycan lost; control: cS5.
A short description of data set [4]: pYSTAT5 immunoblot, Ba/F3 cells ± IL-3. As to conditions: glycan lost; control: cS5.
The nature of data set [5]: immunoblot, 293T with EpoR, EPO stimulation. As to conditions: glycan lost; control: matching construct without T92A (S5, cS5).
A short description of data set [6]: pYSTAT5 immunoblot time course after IL-3 withdrawal, Ba/F3. As to conditions: glycan lost; control: cS5.

This note sets out measurements from publication PMC5629373.

B1: STAT5A (S5; hyperactive variant cS5): T92A (protein)
parent chain: MAGWIQAQQLQGDALRQMQVLYGQHFPIEVRHYLAQWIESQPWDAIDLDNPQDRGQATQLLEGLVQELQKKAEHQVGEDGFLLKIKLGHYATQLQNTYDRCPMELVRCIRHILYNEQRLVREANNCSSPAGVLVDAMSQKHLQINQRFEELRLITQDTENELKKLQQTQEYFIIQYQESLRIQAQFAQLGQLNPQERMSRETALQQKQVSLETWLQREAQTLQQYRVELAEKHQKTLQLLRKQQTIILDDELIQWKRRQQLAGNGGPPEGSLDVLQSWCEKLAEIIWQNRQQIRRAEHLCQQLPIPGPVEEMLAEVNATITDIISALVTSTFIIEKQPPQVLKTQTKFAATVRLLVGGKLNVHMNPPQVKATIISEQQAKSLLKNENTRNECSGEILNNCCVMEYHQATGTLSAHFRNMSLKRIKRADRRGAESVTEEKFTVLFESQFSVGSNELVFQVKTLSLPVVVIVHGSQDHNATATVLWDNAFAEPGRVPFAVPDKVLWPQLCEALNMKFKAEVQSNRGLTKENLVFLAQKLFNISSNHLEDYNSMSVSWSQFNRENLPGWNYTFWQWFDGVMEVLKKHHKPHWNDGAILGFVNKQQAHDLLINKPDGTFLLRFSDSEIGGITIAWKFDSPDRNLWNLKPFTTRDFSIRSLADRLGDLNYLIYVFPDRPKDEVFAKYYTPVLAKAVDGYVKPQIKQVVPEFVNASTDAGASATYMDQAPSPVVCPQPHYNMYPPNPDPVLDQDGEFDLDESMDVARHVEELLRRPMDSLDARLSPPAGLFTSARSSLS
Take B1: in data set [1], the oligomerisation result is on record as “no change”.

B2: STAT5A (S5; hyperactive variant cS5): cS5-T92A (protein)
parent chain: B1 parent chain
Regarding B2, the expression_or_secretion result in data set [2] is on record as “no change”. Further, in data set [3], the “other: serine 725/779 phosphorylation” value was “no change”. Besides, the figures for the “other: tyrosine phosphorylation (pYSTAT5)” value in data set [4] and in data set [5] were “decreases” and “no change”, respectively. Further, in data set [6], the “other: persistence of tyrosine phosphorylation” value was “decreases”.

B3: STAT5A (S5; hyperactive variant cS5): S5-T92A (protein)
parent chain: B1 parent chain
On to B3, for which the “other: tyrosine phosphorylation (pYSTAT5)” value in data set [5] was “no change”.
